According to US11898183B2, “Programmed microorganisms to attenuate a disease” (priority 2020, dated 2024):

B1: CCoAOMT Eleocharis dulcis: Caffeoyl CoA O-methyltransferase (CCoAOMT) from Eleocharis dulcis (protein)
chain: MSTTTTTQTKTETQSQTGAQNGAEQQTRHSEVGHKSLLQSDALYQYILETSVYPREPECMKELRDITAKHPWNLMTTSADEGQFLNLLLKLIGAKKTMEIGVYTGYSLLATALAIPEDGTILAMDINRENYELGLPVIEKAGVAHKIDFREGPALPVLDQLIEDPANLGSFDFIFVDADKDNYLNYHKRLIELVKVGGVIGYDNTLWNGSVVLPADAPMRKYIRYYRDFVLELNKALAADPRIEISQLPVGDGITLCRRVK
modifications: Depicts the nucleic acid sequence encoding Caffeoyl CoA O-methyltransferase (CCoAOMT)
B2: OMT Sinopodophyllum hexandrum: O-methyltransferase 3 (OMT) from Sinopodophyllum hexandrum (protein)
chain: MEMAPTMDLEIRNGNGYGDSGEELLAAQAHIYNHIFNFISSMALKCAVELNIPEILHNHQPKAVTLSELVQALQIPQAKSACLYRLLRILVHSGFFAITKIQSEGDEEGYLPTLSSKLLLKNHPMSMSPCLLGLVNPTMVAPMHFFSDWFKRSDDMTPFEATHGASLWKYFGETPHMAEIFNEAMGCETRLAMSVVLKECKGKLEGISSLVDVGGGTGNVGRAIAEAFPNVKCTVLDLPQVVGNLKGSNNLEFVSGDMFQFIPPADVVFLKWILHDWNDEECIKILKRCKEAIPSKEEGGKLIIIDMVVNDHNKGSYESTETQLFYDLTLMALLTGTERTETEWKKLFVAAGFTSYIISPVLGLKSIIEVFP
modifications: Depicts the nucleic acid sequence encoding O-methyltransferase 3 (OMT) of Sinopodophyllum hexandrum
notes: O-methyltransferase 3 (OMT) from Sinopodophyllum hexandrum
B3: CCoAOMT Chamaecyparis formosensis: Caffeoyl CoA O-methyltransferase (CCoAOMT) from Chamaecyparis formosensis (protein)
chain: MATVEATKDSTQQVSRHQEVGHKSLLQSDALYQYILETSVYPREPEPMRELREITAKHPWNLMTTSADEGQFLHLLLKLINAKNTMEIGVYTGYSLLSTALALPDDGKILAMDINRENYELGLPVIQKAGVAHKIDFREGPALPVLDQMLENKEMHGSFDFIFVDADKDNYLNYHKRLIDLVKIGGVIGYDNTLWNGSVVAPPDAPMRKYVRYYRDFVIELNKALAADPRIEISQIPVGDGITLCRRII
modifications: Depicts the nucleic acid sequence of Caffeoyl CoA O-methyltransferase (CCoAOMT) of Chamaecyparis formosensis
B4: CYP719 Cinnamomum micranthum: CYP719 from Cinnamomum micranthum (protein)
chain: MEAIWTAVAIGIAAAVLMAFRGRQRQRLSRKPTQWPPGPTRLPLIGNMHQILLKGGDPFHVAINKLAQVYGPLMTVWFGTRQPTIIVSDHNLVWEVLVSKSADYAAREIPITLKPSLADFRTIVSSNAGPLWHSLRRGLQNGAIGPHSLSLQAPFQESDMAQMINNMIKEANLNGGVVKPFPHIRRAIIKLLARICFGCDFSDEEFDATMDFMVEEALRYSDDSRILDTFPPARFLPSVKRAVMQMEKVKLRLMECIGRPLDSPLPPTCYAHFLLSQSFPREVAIFSIFELFLLGVDSTGSTTMWGLGLLMQNQEAQQKLYQEIREHASCNEKGVVKVEELGKLEYLQAVAKETMRMKPIAPLAVPHQAARDTTLDGLHVAEGTTVLANLYALHYDPKVWDEPERFKPERFLESSKEFLGKRGQYSFLPFGAGMRACAGMEVGKLQLPFAICNLVNAFNWSNVVEKEAPKLIEGFSFILSMKTPLEARIVPRGI
modifications: Depicts the nucleic acid sequence encoding CYP719 of Cinnamomum micranthum
B5: CYP82D Panax ginseng: CYP82D from Panax ginseng (protein)
chain: METFLAQLYSTTTIAALFVLLVLYYFSPWTRINKKNVAPEAGGGWPIIGHLHLLGGSKLPHLVFGSMADKYGPIFTVRLGVQRSLVVSSWEMVKDIFTTNDVIVSGRPKFLAAKHLSYNYAMFGFSPYGSFWLELRKITSLQLLSNRRLELLKHVRVSEMEISMRQLYKLWSEKKNGSGRVLMDMKKWFGELNLNVTFRMVAGKRYFGGGAASNDEEARRCRRVVREFFRLLGVVVVADSLPFLRWLDLGGYERAMKETAREMDSIVSVWLEEHRIKSDSSGDDANMEQDFMDVMLSAVKNVDLCGFDAHTVIKATCMVIISSGTDTTTVELTWALCLLLNNRHVLKKAQEELDNVVGKQRRVKESDLNNLIYLQAIVKETLRLYPAGQLGGQREFSDDCTVGGYHVPKRTRLVVNLWKLHRDPRIWSDPTEFRPERFLERHKEIDVKGQHFELIPFGAGRRVCPGITFGLQMFHLVLASLLHGFDISTPSDAPVDMAEGAGLTNAKITPLEILIAPRLSPSLYE
modifications: Panax ginseng
B6: DIRPLR Linum usitatissimum: Bifunctional pinoresinol-lariciresinol reductase (DIRPLR) from Linum usitatissimum (protein, listed as Linum usitatissimum)
chain: MGRCRVLVVGGTGYIGKRIVKASIEHGHDTYVLKRPETGLDIEKFQLLLSFKKQGAHLVEASFSDHESLVRAVKLVDVVICTVSGAHSRSLLLQLKLVEAIKEAGNVKRFIPSEFGMDPARMGDALEPGRETFDLKMVVRKAIEDANIPHTYISANCFGGYFVGNLSQLGPLTPPSDKVTIYGDGNVKVVYMDEDDVATYTIMTIEDDRTLNKTMYFRPPENVITHRQLVETWEKLSGNQLQKTELSSQDFLALMEGKDVAEQIVIGHLYHIYYEGCLTNFDIDADQDQVEASSLYPEVEYTRMKDYLMIYL
B7: 2-ODD Nitrospira moscoviensis: 2-oxoglutarate/Fe(II)-dependent dioxygenase (2-ODD) from Nitrospira moscoviensis (protein, listed as Nitrospira moscoviensis)
chain: MVSNMAMGITEAVDRAVAALDVDRLHREYWEQNEFLVIRQFLPRAFVEEVLVPQAQGVKTELNRNYIPGHKKGGSVSYYTVRRRAPLFLDLYRSDSFRAFLDRLVDAKLLLCPENDPHSCALYYYTEPGDHIGFHYDTSYYKGARYTILMGLVDRSTQCKLVCELFKDHPTKAPQRLELITEPGDMVIFNGDKLWHAVTPLGEGEERIALTMEYVTNPEMGAFKRLYSNLKDSFAYFGLKTVFKQALAKKSS
B8: SDH Juglans regia: Secoisolariciresinol dehydrogenase (SDH) from Juglans regia (protein, listed as Juglans regia)
chain: MNGTSSLLAPIAKRLAGKVALITGGASGIGESTARLFAEQGAKVIIADVQDELGFSVSQDKSINGAISYIHCDVTSESDVQNAVNTAVSKHGKLDIMFNTAGCTGQNKASILDHEQKDYKTVFDVNVLGSFLGAKHAAKVMIPVKRGTILFTASCVTESHGLASHSYTASKHAVVGLTKNLCVELGQYGIRVNCISPYGAATPLFLKGMGIDKKEKAEEILSSAANLKGPVLEAGDLAEAALFLASEESKYVSVLNLVVDGGYSATNVAFTETIQKFFT
B9: 2-ODD Nitrospira japonica: 2-oxoglutarate/Fe(II)-dependent dioxygenase (2-ODD) from Nitrospira japonica (protein)
chain: MMGGAMTTQTLDTIAEAVDQAVARLDFDRLHREYWEQNEFLVIPQFLDRAMVEEWLVPQAQGVKGDLNRNYIPGHKKGGSVSYYTVMEKAPRFLDLYRSQVFIEFLSRLSHAKLRLCPDNDPHSCALYYYTEPGDHIGFHYDTSYYKGSRYTILMGLVDQSTHCKLVCELFKDDPVRPSKRLELITQPGDMVIFNGDKLWHAVTPLGPNEERIALTMEYVTNPDMGTFKRLYSNLKDSFAYFGLRAVFKRALSLPRR
modifications: Depicts the nucleic acid sequence of 2-oxoglutarate/Fe(II)-dependent dioxygenase (2-ODD) of Nitrospira japonica
notes: 2-oxoglutarate/Fe(II)-dependent dioxygenase (2-ODD) from Nitrospira japonica
B10: CYP71 Cinnamomum micranthum: CYP71 from Cinnamomum micranthum (protein)
chain: MALLLSLLFFASALIFLLKLNGQRANKTDVPPSPPKLPLIGNLHQLGTLPHRSLRSLAGKYGPLMLLYLGRIPTLIVSSEEMAEQIMKTHDLIFASRPSITAAKELLYGCTDLAFASYGEYWRQVRKMCVLELLSIKRVNSFRSIMEEEVGLMIERISQSSSTGAAVNLAELFLSLTGGTIARAALGKKYEGEAEEGRNKYADLVKELHALLGAFSVGDYFPSLAWVDVVTGLHGKLKRNSRELDRFLDQVIEHHLMRPLDGCDVGEHTDLVDVMLQVQKDSNRDIHLTRDNIKAIILDMFSAGTDTTALTLEWVMAELAKHPNVMKKAQGEVRRVVDVKANISEEHLCQLNYMKSIIKETLRLHPPAPLLVPRESTTNVKIQNFHIPPKTRVFINAYAIGRDPTSWENPEEFLPERFANNSVDFKGQDFQFIPFGAGRRGCPGLSFAITSLELALANLLYWFDWELPQGVTEEDLDMSEALGITVHKKLPLYLVPKNHFS
modifications: Depicts the nucleic acis sequence encoding CYP71 of Cinnamomum micranthum

What follows are molecules tested on pathway specific substrates (assay: Enzyme functionality of pathway enzyme homologs and fusion constructs in lysed E. coli cell extracts, product by HPLC). Settings: protein expressed in E. coli, lysed cell extract, pathway specific substrate, HPLC.
Type: biochemical, E. coli BL21
Procedure: As per one of the possible implementations of the present disclosure, two proteins—cinnamate-4-hydroxylate (C4H) and 4-coumaroyl CoA-ligase (4CL) were expressed as one fusion protein. Also, other two proteins which were expressed as one fusion protein were hydroxycinnamoyl-CoA quinate hydroxycinnamoyltransferase (HCT) and p-coumaroyl quinate 3′-hydroxylase (HCTC3H). The fusion gene and the corresponding fusion protein was prepared using the following method. […] The enzyme fusion constructs were made for the selected genes (Table 5). Pathway genes and the fusion constructs were individually cloned in E. coli expression vector pET28+ under T7 promoter and transformed in E. coli BL21 cells. Recombinant bacterial cells were induced with IPTG and enzyme functionality was tested with pathway specific substrates (Table 5) using lysed E. coli cell extracts. HPLC analysis was carried out to quantify the product formation and in turn shortlisting of efficient enzymes for functional pathway assembly towards Etoposide in E. coli.
The E. coli transformants were grown overnight at 37° C. in 1 ml of M9 minimal media containing ampicillin (100 mg/1), in 96-well format. The next day, 150 μl of each culture was inoculated into 3 ml M9 minimal media containing ampicillin (100 mg/1), IPTG 0.1 mM in 24-well format, and incubated at 30° C. and 200 rpm for ˜20 hours. The following day, cells were spun down and pellets were resuspended in 100 μl of lysis buffer containing 10 mM Tris-HCl pH 8, 5 mM MgCl2, 1 mM CaCl2) and complete mini protease inhibitor EDTA-free (3 tablets/100 ml) (Hoffmann-La Roche, Basel, Switzerland) and frozen at −80° C. for at least 15 minutes to promote cell lysis. Pellets were thawed at room temperature and 50 μl of DNase mix (1 μl of 1.4 mg/ml DNase in H2O (˜80000 u/ml), 1.2 μl of MgCl2 500 mM and 47.8 μl of 4×PBS buffer solution) was added to each well. Plates were shaken at 500 rpm for 5 min at room temperature to allow degradation of genomic DNA. Plates were spun down at 4000 rpm for 30 min at 4° C. and six μl of the lysates were used in in vitro using appropriate substrates for enzymes as per Table 6. In each case, the resulting compounds were measured by HPLC. Results were analysed in comparison with the lysates expressing the corresponding controls (the empty plasmid). […]

Molecule | enzyme activity | enzyme activity (in words)
B1 | 61% | –
B2 | 99% | –
B3 | 95% | –
B4 | – | highest enzyme activity
B5 | around 93% | –
B6 | – | desirable enzyme activity
B7 | 96% | –
B8 | 99% | –
B9 | 88% | –
B10 | 94% | –
